Data: paper PMC9993118

Assays:
Settings in all cases: EMSA: Pierce EMSA kit conditions, 15 min, 7.5% polyacrylamide gel at room temperature; footprinting: 20 mM Tris-HCl pH 7.5, 80 mM NaCl, 1 mM EDTA, 100 ug/ml …
[1] = biological target: T1, Fis (Escherichia coli) (UniProt P0A6R3); assay: EMSA
T1 sequence: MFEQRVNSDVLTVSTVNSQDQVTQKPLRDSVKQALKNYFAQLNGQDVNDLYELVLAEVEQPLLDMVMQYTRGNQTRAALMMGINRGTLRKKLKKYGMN

[2] = biological target: T2, Lrp (UniProt P0ACJ0); assay: EMSA
T2 sequence: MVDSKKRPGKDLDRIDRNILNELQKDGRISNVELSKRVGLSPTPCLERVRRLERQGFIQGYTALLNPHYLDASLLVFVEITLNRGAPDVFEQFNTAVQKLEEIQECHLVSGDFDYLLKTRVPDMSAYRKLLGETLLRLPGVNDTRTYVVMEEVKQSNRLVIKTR

[3] = biological target: T2, Lrp; assay: competition EMSA

Row | Sequence | binding [1] | binding [2] | binding [3]
1 | CCCCCAAAAGATGAAACATTTGGGGCCATTTTGACTCATAGAGGAAAGCATCGCGGACAAACTTTTTCAGTTTATTTGTTGGCTTAATATTCTATTGTTATCTTTATTTATAGATGTTTATATTGCATGAGGTGG (double strand) [fimS 135 bp probe (wild type)] | binds | binds | binds
2 | CCACCTCATGCAATATAAACATCTATAAATAAAGATAACAATAGAATATTAAGGGGTTAGCTAAACTGAAAAAGTTTGTCCGCGATGCTTTCCTCTATGAGTCAAAATGGCCCCAAATGTTTCATCTTTTGGGGG (double strand) [fimS 135 bp probe, Fis site disrupted] | binds more weakly | binds more weakly | –
